Reference: patent US20150344570A1 (published 2015)

How the values were obtained:
Assay in all cases: SPR (Biacore); KD of H240-Kn061/H240-Hl071/L73-k0 divided by KD of the variant
[1] = molecular target: T1, FcgRIIb (FcγRIIb) extracellular domain with C-terminal His tag (human, UniProt P31994 43-217)
T1 construct: extracellular domain; not shown: His tag attached to the C terminus
T1 sequence (looked up): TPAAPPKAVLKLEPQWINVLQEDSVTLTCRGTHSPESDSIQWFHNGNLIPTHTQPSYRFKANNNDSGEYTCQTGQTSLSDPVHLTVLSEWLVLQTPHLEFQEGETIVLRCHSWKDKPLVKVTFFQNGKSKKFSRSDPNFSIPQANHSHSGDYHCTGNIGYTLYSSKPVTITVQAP
Method: (§1) The antibodies were assessed for the binding to each FcgR. […] The resultant value was defined as relative KD, and used as an assessment indicator.
(§2) Analysis of interaction between objective antibody and the FcγR was carried out using Biacore T100 (GE Healthcare), Biacore T200, Biacore A100, and Biacore 4000. HBS-EP+ (GE Healthcare) was used as the running buffer, and the measurement temperature was set to 25° C. Chips produced by immobilizing the antigen peptide by the amine coupling method to a Series S sensor Chip CM5 (GE Healthcare), chips produced by allowing preliminarily biotinylated antigen peptides to interact with and immobilize onto a Series S Sensor Chip SA (certified) (GE Healthcare), chips produced by immobilizing Protein L (ACTIGEN, BioVision) to Series S Sencor Chip CM5 (GE Healthcare), or chips produced by immobilizing Protein A/G (Thermo Scientific) to Series S Sencor Chip CM5 (GE Healthcare) were used. Antibodies of interest were captured onto these chips, and allowed to interact to each FcγR diluted with running buffer.

[2] = molecular target: T2, FcgRIIIa V (FcγRIIIa type V) extracellular domain with C-terminal His tag (human, UniProt P08637 17-208)
T2 construct: extracellular domain; also called FcγRIIIa V; not shown: His tag attached to the C terminus
T2 sequence (P08637 17-208 F176V limits assumed): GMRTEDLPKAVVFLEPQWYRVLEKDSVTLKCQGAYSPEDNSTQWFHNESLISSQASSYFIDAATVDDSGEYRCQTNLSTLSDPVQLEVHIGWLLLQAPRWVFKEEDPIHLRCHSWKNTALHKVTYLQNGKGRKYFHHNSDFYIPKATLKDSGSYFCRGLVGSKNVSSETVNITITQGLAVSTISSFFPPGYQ
Method: as §1, §2

[3] = molecular target: T3, FcgRIIIa F (FcγRIIIa type F) extracellular domain with C-terminal His tag (human, UniProt P08637 17-208)
T3 construct: extracellular domain; also called FcγRIIIa F; 3aF; not shown: His tag attached to the C terminus
T3 sequence (P08637 17-208): as the sequence (P08637 17-208 F176V limits assumed) above, with V160F counted along it
Method: as §1, §2

B1: H240-Kn061/H240-Hl071/L73-k0 variant with Y235M in H240-Kn061 (antibody, human IgG1, kappa)
heavy 1: QDQLVQSGAEVKKPGASVKVSCKASGFNIKDTYIQWVRQAPGQGLEWMGRIDPLRKQTKYREKFEGRVTITADTSTNTAYMELSSLRSEDTAVYYCVRSGREFDYWGQGTLVTVSSASTKGPSVFPLAPSSKSTSGGTAALGCLVKDYFPEPVTVSWNSGALTSGVHTFPAVLQSSGLYSLSSVVTVPSSSLGTQTYICNVNHKPSNTKVDKKVEPKSCDKTHTCPPCPAPEYMWGPSVFLFPPKPKDTLMISRTPEVTCVVVDVSDEDPEVKFNWYVDGVEVHNAKTKPREEQYNATYRVVSVLTVLHQDWLNGKEYKCKVSNKALPAPIEKTISKAKGQPREPQVCTLPPSRDELTKNQVSLWCLVKGFYPSDIAVEWESNGQPENNYKTTPPVLDSDGSFFLYSKLTVDKSRWQQGNVFSCSVMHEALHNHYTQKSLSLSP
heavy 2: QDQLVQSGAEVKKPGASVKVSCKASGFNIKDTYIQWVRQAPGQGLEWMGRIDPLRKQTKYREKFEGRVTITADTSTNTAYMELSSLRSEDTAVYYCVRSGREFDYWGQGTLVTVSSASTKGPSVFPLAPSSKSTSGGTAALGCLVKDYFPEPVTVSWNSGALTSGVHTFPAVLQSSGLYSLSSVVTVPSSSLGTQTYICNVNHKPSNTKVDKKVEPKSCDKTHTCPPCPAPELLGGPSVFLFPPKPKDTLMISRTPEVTCVVVDVSHEDPEVKFNWYVDGVEVHNAKTKPREEQYNSTYRVVSVLTVLHQDWLNGKEYKCKVSNDALPMPIEETISKAKGQPREPQVYTLPPSRCELTKNQVSLSCAVKGFYPSDIAVEWESNGQPENNYKTTPPVLDSDGSFFLVSKLTVDKSRWQQGNVFSCSVMHEALHNHYTQKSLSLSP
light: DIQMTQSPSSLSASVGDRVTITCRASQDIHKYIAWYQQKPGQAPRLLIQYTSTLQPGVPSRFSGSGSGTDYTFTISSLQPEDIATYYCLQYEQLRTFGGGTKVEIKRTVAAPSVFIFPPSDEQLKSGTASVVCLLNNFYPREAKVQWKVDNALQSGNSQESVTEQDSKDSTYSLSSTLTLSKADYEKHKVYACEVTHQGLSSPVTKSFNRGEC
notes: anti-epiregulin heterodimerized IgG1; also called H240-Kn061 Y235M
[1]
  relative KD: 0.7 ratio
[2]
  relative KD: 1.8 ratio
[3]
  relative KD: 1.7 ratio

B2: H240-Kn061/H240-Hl071/L73-k0 variant with Y235T in H240-Kn061 (antibody, human IgG1, kappa)
heavy 1: QDQLVQSGAEVKKPGASVKVSCKASGFNIKDTYIQWVRQAPGQGLEWMGRIDPLRKQTKYREKFEGRVTITADTSTNTAYMELSSLRSEDTAVYYCVRSGREFDYWGQGTLVTVSSASTKGPSVFPLAPSSKSTSGGTAALGCLVKDYFPEPVTVSWNSGALTSGVHTFPAVLQSSGLYSLSSVVTVPSSSLGTQTYICNVNHKPSNTKVDKKVEPKSCDKTHTCPPCPAPEYTWGPSVFLFPPKPKDTLMISRTPEVTCVVVDVSDEDPEVKFNWYVDGVEVHNAKTKPREEQYNATYRVVSVLTVLHQDWLNGKEYKCKVSNKALPAPIEKTISKAKGQPREPQVCTLPPSRDELTKNQVSLWCLVKGFYPSDIAVEWESNGQPENNYKTTPPVLDSDGSFFLYSKLTVDKSRWQQGNVFSCSVMHEALHNHYTQKSLSLSP
heavy 2: QDQLVQSGAEVKKPGASVKVSCKASGFNIKDTYIQWVRQAPGQGLEWMGRIDPLRKQTKYREKFEGRVTITADTSTNTAYMELSSLRSEDTAVYYCVRSGREFDYWGQGTLVTVSSASTKGPSVFPLAPSSKSTSGGTAALGCLVKDYFPEPVTVSWNSGALTSGVHTFPAVLQSSGLYSLSSVVTVPSSSLGTQTYICNVNHKPSNTKVDKKVEPKSCDKTHTCPPCPAPELLGGPSVFLFPPKPKDTLMISRTPEVTCVVVDVSHEDPEVKFNWYVDGVEVHNAKTKPREEQYNSTYRVVSVLTVLHQDWLNGKEYKCKVSNDALPMPIEETISKAKGQPREPQVYTLPPSRCELTKNQVSLSCAVKGFYPSDIAVEWESNGQPENNYKTTPPVLDSDGSFFLVSKLTVDKSRWQQGNVFSCSVMHEALHNHYTQKSLSLSP
light: DIQMTQSPSSLSASVGDRVTITCRASQDIHKYIAWYQQKPGQAPRLLIQYTSTLQPGVPSRFSGSGSGTDYTFTISSLQPEDIATYYCLQYEQLRTFGGGTKVEIKRTVAAPSVFIFPPSDEQLKSGTASVVCLLNNFYPREAKVQWKVDNALQSGNSQESVTEQDSKDSTYSLSSTLTLSKADYEKHKVYACEVTHQGLSSPVTKSFNRGEC
notes: anti-epiregulin heterodimerized IgG1; also called H240-Kn061 Y235T
[1]
  relative KD: 0.6 ratio
[2]
  relative KD: 1.1 ratio
[3]
  relative KD: 0.9 ratio

B3: H240-Kn061/H240-Hl071/L73-k0 variant with Y235W in H240-Kn061 (antibody, human IgG1, kappa)
heavy 1: QDQLVQSGAEVKKPGASVKVSCKASGFNIKDTYIQWVRQAPGQGLEWMGRIDPLRKQTKYREKFEGRVTITADTSTNTAYMELSSLRSEDTAVYYCVRSGREFDYWGQGTLVTVSSASTKGPSVFPLAPSSKSTSGGTAALGCLVKDYFPEPVTVSWNSGALTSGVHTFPAVLQSSGLYSLSSVVTVPSSSLGTQTYICNVNHKPSNTKVDKKVEPKSCDKTHTCPPCPAPEYWWGPSVFLFPPKPKDTLMISRTPEVTCVVVDVSDEDPEVKFNWYVDGVEVHNAKTKPREEQYNATYRVVSVLTVLHQDWLNGKEYKCKVSNKALPAPIEKTISKAKGQPREPQVCTLPPSRDELTKNQVSLWCLVKGFYPSDIAVEWESNGQPENNYKTTPPVLDSDGSFFLYSKLTVDKSRWQQGNVFSCSVMHEALHNHYTQKSLSLSP
heavy 2: QDQLVQSGAEVKKPGASVKVSCKASGFNIKDTYIQWVRQAPGQGLEWMGRIDPLRKQTKYREKFEGRVTITADTSTNTAYMELSSLRSEDTAVYYCVRSGREFDYWGQGTLVTVSSASTKGPSVFPLAPSSKSTSGGTAALGCLVKDYFPEPVTVSWNSGALTSGVHTFPAVLQSSGLYSLSSVVTVPSSSLGTQTYICNVNHKPSNTKVDKKVEPKSCDKTHTCPPCPAPELLGGPSVFLFPPKPKDTLMISRTPEVTCVVVDVSHEDPEVKFNWYVDGVEVHNAKTKPREEQYNSTYRVVSVLTVLHQDWLNGKEYKCKVSNDALPMPIEETISKAKGQPREPQVYTLPPSRCELTKNQVSLSCAVKGFYPSDIAVEWESNGQPENNYKTTPPVLDSDGSFFLVSKLTVDKSRWQQGNVFSCSVMHEALHNHYTQKSLSLSP
light: DIQMTQSPSSLSASVGDRVTITCRASQDIHKYIAWYQQKPGQAPRLLIQYTSTLQPGVPSRFSGSGSGTDYTFTISSLQPEDIATYYCLQYEQLRTFGGGTKVEIKRTVAAPSVFIFPPSDEQLKSGTASVVCLLNNFYPREAKVQWKVDNALQSGNSQESVTEQDSKDSTYSLSSTLTLSKADYEKHKVYACEVTHQGLSSPVTKSFNRGEC
notes: anti-epiregulin heterodimerized IgG1; also called H240-Kn061 Y235W
[1]
  relative KD: 1.3 ratio
[2]
  relative KD: 1.3 ratio
[3]
  relative KD: 1.1 ratio

B4: H240-Kn061/H240-Hl071/L73-k0 variant with Y235N in H240-Kn061 (antibody, human IgG1, kappa)
heavy 1: QDQLVQSGAEVKKPGASVKVSCKASGFNIKDTYIQWVRQAPGQGLEWMGRIDPLRKQTKYREKFEGRVTITADTSTNTAYMELSSLRSEDTAVYYCVRSGREFDYWGQGTLVTVSSASTKGPSVFPLAPSSKSTSGGTAALGCLVKDYFPEPVTVSWNSGALTSGVHTFPAVLQSSGLYSLSSVVTVPSSSLGTQTYICNVNHKPSNTKVDKKVEPKSCDKTHTCPPCPAPEYNWGPSVFLFPPKPKDTLMISRTPEVTCVVVDVSDEDPEVKFNWYVDGVEVHNAKTKPREEQYNATYRVVSVLTVLHQDWLNGKEYKCKVSNKALPAPIEKTISKAKGQPREPQVCTLPPSRDELTKNQVSLWCLVKGFYPSDIAVEWESNGQPENNYKTTPPVLDSDGSFFLYSKLTVDKSRWQQGNVFSCSVMHEALHNHYTQKSLSLSP
heavy 2: QDQLVQSGAEVKKPGASVKVSCKASGFNIKDTYIQWVRQAPGQGLEWMGRIDPLRKQTKYREKFEGRVTITADTSTNTAYMELSSLRSEDTAVYYCVRSGREFDYWGQGTLVTVSSASTKGPSVFPLAPSSKSTSGGTAALGCLVKDYFPEPVTVSWNSGALTSGVHTFPAVLQSSGLYSLSSVVTVPSSSLGTQTYICNVNHKPSNTKVDKKVEPKSCDKTHTCPPCPAPELLGGPSVFLFPPKPKDTLMISRTPEVTCVVVDVSHEDPEVKFNWYVDGVEVHNAKTKPREEQYNSTYRVVSVLTVLHQDWLNGKEYKCKVSNDALPMPIEETISKAKGQPREPQVYTLPPSRCELTKNQVSLSCAVKGFYPSDIAVEWESNGQPENNYKTTPPVLDSDGSFFLVSKLTVDKSRWQQGNVFSCSVMHEALHNHYTQKSLSLSP
light: DIQMTQSPSSLSASVGDRVTITCRASQDIHKYIAWYQQKPGQAPRLLIQYTSTLQPGVPSRFSGSGSGTDYTFTISSLQPEDIATYYCLQYEQLRTFGGGTKVEIKRTVAAPSVFIFPPSDEQLKSGTASVVCLLNNFYPREAKVQWKVDNALQSGNSQESVTEQDSKDSTYSLSSTLTLSKADYEKHKVYACEVTHQGLSSPVTKSFNRGEC
notes: anti-epiregulin heterodimerized IgG1; also called H240-Kn061 Y235N
[1]
  relative KD: 0.7 ratio
[2]
  relative KD: 2 ratio
[3]
  relative KD: 1.3 ratio
